Reference: article PMC11514458

How the values were obtained:
RAD51;BCDX2 complex [1] = molecular target: T1, RAD51;BCDX2 complex (human?;human, UniProt Q06609;O15315;O43502;O75771;O43543 1-339;1-384;1-376;1-328;1-280, |); assay: BLI; BCDX2 facilitates RAD51 binding; EMSA: 20 mM Tris-HCl pH 7.5, 2 mM MgCl2, 2 mM ATP, 37 C, 20 nM DNA, glutaraldehyde fixation; stopped-flow: 25 mM Tris-HCl pH 7.5, 5 mM MgCl2, 50 mM KCl, 2 mM ATP, 0.5 mM EDTA, 10% glycerol, 37 C; BLI: 50 mM Tris-HCl pH 7.5, 2 mM ATP, 50 mM KCl, 5 mM MgCl2, 0.05% Tween 20, room temperature; conditions: protein: recombinant;recombinant; tags: ;Strep-tag and His-tag (XRCC2 N-terminal His); copies: 1;1;1;1;1; label: 5' biotin
T1 sequence (Q06609 whole entry, one chain of several): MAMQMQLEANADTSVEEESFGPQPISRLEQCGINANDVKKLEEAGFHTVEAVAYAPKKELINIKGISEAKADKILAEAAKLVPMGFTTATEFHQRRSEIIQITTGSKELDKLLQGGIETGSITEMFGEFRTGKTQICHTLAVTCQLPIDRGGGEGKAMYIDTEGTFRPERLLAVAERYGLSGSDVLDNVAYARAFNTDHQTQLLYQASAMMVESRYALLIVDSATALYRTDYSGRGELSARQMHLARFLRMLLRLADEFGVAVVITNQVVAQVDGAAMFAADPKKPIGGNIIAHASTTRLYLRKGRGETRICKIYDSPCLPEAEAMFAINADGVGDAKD

BCDX2 complex [2] = molecular target: T2, BCDX2 complex (human, UniProt O15315;O43502;O75771;O43543 1-384;1-376;1-328;1-280); assay: EMSA; 10 nt sufficient within reversed fork; EMSA: 20 mM Tris-HCl pH 7.5, 2 mM MgCl2, 2 mM ATP, 37 C, 20 nM DNA, glutaraldehyde fixation; stopped-flow: 25 mM Tris-HCl pH 7.5, 5 mM MgCl2, 50 mM KCl, 2 mM ATP, 0.5 mM EDTA, 10% glycerol, 37 C; BLI: 50 mM Tris-HCl pH 7.5, 2 mM ATP, 50 mM KCl, 5 mM MgCl2, 0.05% Tween 20, room temperature; conditions: protein: recombinant; tags: Strep-tag and His-tag (XRCC2 N-terminal His); copies: 1;1;1;1; label: 3' Cy3 on strand 1; reversed fork of 4 strands, 3' ssDNA tail 10 nt
T2 sequence 1: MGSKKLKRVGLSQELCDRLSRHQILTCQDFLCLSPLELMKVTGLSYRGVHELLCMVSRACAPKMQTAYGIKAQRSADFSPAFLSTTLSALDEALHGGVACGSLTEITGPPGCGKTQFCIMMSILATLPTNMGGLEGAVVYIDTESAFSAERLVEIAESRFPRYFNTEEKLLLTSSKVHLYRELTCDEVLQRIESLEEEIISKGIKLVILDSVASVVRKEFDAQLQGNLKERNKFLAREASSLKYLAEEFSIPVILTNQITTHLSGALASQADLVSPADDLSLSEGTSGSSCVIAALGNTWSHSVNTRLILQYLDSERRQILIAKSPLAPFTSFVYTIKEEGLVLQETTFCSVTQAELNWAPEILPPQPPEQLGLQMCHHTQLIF
T2 sequence 2: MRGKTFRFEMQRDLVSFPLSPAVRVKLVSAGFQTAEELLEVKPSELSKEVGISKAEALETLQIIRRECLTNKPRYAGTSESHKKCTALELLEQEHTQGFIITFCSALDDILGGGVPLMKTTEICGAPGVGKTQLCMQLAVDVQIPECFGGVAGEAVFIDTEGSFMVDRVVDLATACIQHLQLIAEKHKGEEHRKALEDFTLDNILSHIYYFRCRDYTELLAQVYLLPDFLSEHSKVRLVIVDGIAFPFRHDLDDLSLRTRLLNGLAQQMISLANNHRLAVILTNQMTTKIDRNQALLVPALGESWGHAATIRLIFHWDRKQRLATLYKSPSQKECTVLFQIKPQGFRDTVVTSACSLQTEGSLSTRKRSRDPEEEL
T2 sequence 3: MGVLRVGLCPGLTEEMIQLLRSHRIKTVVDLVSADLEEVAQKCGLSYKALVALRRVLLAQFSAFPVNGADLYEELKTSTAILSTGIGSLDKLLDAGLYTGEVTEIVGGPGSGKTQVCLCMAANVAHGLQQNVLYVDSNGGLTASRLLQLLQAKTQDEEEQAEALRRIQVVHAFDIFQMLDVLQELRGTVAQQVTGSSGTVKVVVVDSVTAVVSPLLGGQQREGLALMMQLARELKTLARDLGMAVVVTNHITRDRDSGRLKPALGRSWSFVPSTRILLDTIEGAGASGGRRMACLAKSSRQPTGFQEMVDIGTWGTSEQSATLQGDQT
T2 sequence 4: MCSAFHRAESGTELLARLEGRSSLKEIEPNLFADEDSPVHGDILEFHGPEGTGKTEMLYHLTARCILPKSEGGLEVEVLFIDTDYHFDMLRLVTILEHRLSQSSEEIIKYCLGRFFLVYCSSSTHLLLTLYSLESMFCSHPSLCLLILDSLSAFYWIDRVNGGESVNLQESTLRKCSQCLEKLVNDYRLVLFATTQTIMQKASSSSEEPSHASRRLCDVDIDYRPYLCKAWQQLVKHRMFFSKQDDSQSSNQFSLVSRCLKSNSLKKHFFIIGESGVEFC

RAD51;BCDX2 complex [3] = molecular target: T1, RAD51;BCDX2 complex; assay: BLI; enhanced RAD51 loading; EMSA: 20 mM Tris-HCl pH 7.5, 2 mM MgCl2, 2 mM ATP, 37 C, 20 nM DNA, glutaraldehyde fixation; stopped-flow: 25 mM Tris-HCl pH 7.5, 5 mM MgCl2, 50 mM KCl, 2 mM ATP, 0.5 mM EDTA, 10% glycerol, 37 C; BLI: 50 mM Tris-HCl pH 7.5, 2 mM ATP, 50 mM KCl, 5 mM MgCl2, 0.05% Tween 20, room temperature; conditions: protein: recombinant;recombinant; tags: ;Strep-tag and His-tag (XRCC2 N-terminal His); copies: 1;1;1;1;1; label: 3' Cy3 on strand 1; 5' biotin on strand 4; reversed fork of 4 strands, 3' ssDNA tail
RAD51;BCD(R266A)X2 [4] = molecular target: T3, RAD51;BCD(R266A)X2 (human?;human?, UniProt Q06609;O15315;O43502;O75771;O43543 1-339;1-384;1-376;1-328;1-280, |R266A); assay: BLI; RAD51 loading retained; EMSA: 20 mM Tris-HCl pH 7.5, 2 mM MgCl2, 2 mM ATP, 37 C, 20 nM DNA, glutaraldehyde fixation; stopped-flow: 25 mM Tris-HCl pH 7.5, 5 mM MgCl2, 50 mM KCl, 2 mM ATP, 0.5 mM EDTA, 10% glycerol, 37 C; BLI: 50 mM Tris-HCl pH 7.5, 2 mM ATP, 50 mM KCl, 5 mM MgCl2, 0.05% Tween 20, room temperature; conditions: protein: recombinant;recombinant; tags: ;; copies: 1;1;1;1;1; label: 3' Cy3 on strand 1; reversed fork of 4 strands, 3' ssDNA tail
T3 sequence (Q06609 whole entry, stated change not applied, one chain of several): as the sequence (Q06609 whole entry, one chain of several) above

RAD51;BCDX2(R159A) [5] = molecular target: T4, RAD51;BCDX2(R159A) (human?;human?, UniProt Q06609;O15315;O43502;O75771;O43543 1-339;1-384;1-376;1-328;1-280, |R159A); assay: as above; conditions: protein: recombinant;recombinant; tags: ;; copies: 1;1;1;1;1; label: 3' Cy3 on strand 1; reversed fork of 4 strands, 3' ssDNA tail
T4 sequence (Q06609 whole entry, stated change not applied, one chain of several): as the sequence (Q06609 whole entry, one chain of several) above

BCDX2 complex [6] = molecular target: T2, BCDX2 complex; assay: EMSA; efficient binding; EMSA: 20 mM Tris-HCl pH 7.5, 2 mM MgCl2, 2 mM ATP, 37 C, 20 nM DNA, glutaraldehyde fixation; stopped-flow: 25 mM Tris-HCl pH 7.5, 5 mM MgCl2, 50 mM KCl, 2 mM ATP, 0.5 mM EDTA, 10% glycerol, 37 C; BLI: 50 mM Tris-HCl pH 7.5, 2 mM ATP, 50 mM KCl, 5 mM MgCl2, 0.05% Tween 20, room temperature; conditions: protein: recombinant; tags: Strep-tag and His-tag (XRCC2 N-terminal His); copies: 1;1;1;1; label: 5' FITC
RAD51;BCD(R266A)X2 [7] = molecular target: T3, RAD51;BCD(R266A)X2; assay: BLI; no RAD51 loading by mutant; EMSA: 20 mM Tris-HCl pH 7.5, 2 mM MgCl2, 2 mM ATP, 37 C, 20 nM DNA, glutaraldehyde fixation; stopped-flow: 25 mM Tris-HCl pH 7.5, 5 mM MgCl2, 50 mM KCl, 2 mM ATP, 0.5 mM EDTA, 10% glycerol, 37 C; BLI: 50 mM Tris-HCl pH 7.5, 2 mM ATP, 50 mM KCl, 5 mM MgCl2, 0.05% Tween 20, room temperature; conditions: protein: recombinant;recombinant; tags: ;; copies: 1;1;1;1;1; label: 5' biotin
RAD51;BCDX2(R159A) [8] = molecular target: T4, RAD51;BCDX2(R159A); assay: as above; conditions: protein: recombinant;recombinant; tags: ;; copies: 1;1;1;1;1; label: 5' biotin

TTTTTTTTTTTTTTT (ssDNA) [biotin-dT15]
binding result (RAD51;BCDX2 complex [1]): binds

B1: 10ntRVF (mixed)
DNA 1: GACGCTGCCGAATTCTACCAGTGCCTTGCTATTTTTTTTTT
DNA 2: ATCTGTTGTAATCGTCAAGCTTTATGCCGTT
DNA 3: GAACGGCATAAAGCTTGACGATTACAACAGATCATGGAGCTGTCTAGAGGATCCGACTATCGA
DNA 4: ATCGATAGTCGGATCCTCTAGACAGCTCCATGTAGCAAGGCACTGGTAGAATTCGGCAGCGT
binding result (BCDX2 complex [2]): binds

B2: RVF25ssDNA (mixed)
DNA 1: GACGCTGCCGAATTCTACCAGTGCCTTGCTATTTTTTTTTTTTTTTTTTTTTTTTTTTTTT
DNA 2: ATCTGTTGTAATCGTCAAGCTTTATGCCGTT
DNA 3: GAACGGCATAAAGCTTGACGATTACAACAGATCATGGAGCTGTCTAGAGGATCCGACTATCGA
DNA 4: ATCGATAGTCGGATCCTCTAGACAGCTCCATGTAGCAAGGCACTGGTAGAATTCGGCAGCGT
binding result (RAD51;BCDX2 complex [3]): binds

B3: 20ntRVF (mixed)
DNA 1: GACGCTGCCGAATTCTACCAGTGCCTTGCTATTTTTTTTTTTTTTTTTTTTTTTTT
DNA 2: ATCTGTTGTAATCGTCAAGCTTTATGCCGTT
DNA 3: GAACGGCATAAAGCTTGACGATTACAACAGATCATGGAGCTGTCTAGAGGATCCGACTATCGA
DNA 4: ATCGATAGTCGGATCCTCTAGACAGCTCCATGTAGCAAGGCACTGGTAGAATTCGGCAGCGT
binding result (RAD51;BCD(R266A)X2 [4]): binds | binding result (RAD51;BCDX2(R159A) [5]): binds

GAATGTGTGTCTCAATC (ssDNA) [ssDNA 20mer]
binding result (BCDX2 complex [6]): binds

TTTTTTTTTTTTTTTTTTTT (ssDNA) [biotin-dT20]
binding result (RAD51;BCD(R266A)X2 [7]): no binding | binding result (RAD51;BCDX2(R159A) [8]): no binding
